Data on 35 substances can be found in patent publication US20220088146A1, “Melanocortin Receptor-Specific Peptide Formulations and Methods for Gastrointestinal Tract-Specific Delivery” (Palatin Technologies, Inc., priority 2018, published 2022).

Bridge positions count the residues as written; N and C are the ends. Square brackets hold non-standard residues; d marks the D form. dPhe(3-Cl) = N[C@H](Cc1cccc(Cl)c1)C(=O)O; dPhe(4-Cl) = N[C@H](Cc1ccc(Cl)cc1)C(=O)O; dPhe(4-Me) = Cc1ccc(C[C@@H](N)C(=O)O)cc1; dPhe(2-Cl) = N[C@H](Cc1ccccc1Cl)C(=O)O; dPhe(4-F) = N[C@H](Cc1ccc(F)cc1)C(=O)O; dPhe(2-F) = N[C@H](Cc1ccccc1F)C(=O)O; Nle = CCCC[C@H](N)C(=O)O; Orn = NCCC[C@H](N)C(=O)O; Dab = NCC[C@H](N)C(=O)O

For experiment [1], the target named is human melanocortin-1 receptor (human) (UniProt Q01726). Briefly: cell-based or functional assay.
In experiment [2] the target is human melanocortin-4 receptor (human) (UniProt P32245). In words: [I125]-NDP-α-MSH competition, hMC4r HEK-293 membranes.
The target in experiment [3] is human melanocortin-1 receptor (human) (UniProt Q01726). Briefly: [I125]-NDP-α-MSH competition, hMC1r HEK-293 membranes.
Experiment [4] deals with human melanocortin-4 receptor (human) (UniProt P32245). In words: cell-based or functional assay.
Experiment [5] concerns the target melanocortin-5 receptor (UniProt P33032). In words: cell-based or functional assay.
The target in experiment [6] is melanocortin-2 receptor (UniProt Q01718). In words: cell-based or functional assay.
The target of experiment [7] is melanocortin-3 receptor (UniProt P41968). Briefly: cell-based or functional assay.
Sequence of melanocortin-3 receptor (P41968 whole entry): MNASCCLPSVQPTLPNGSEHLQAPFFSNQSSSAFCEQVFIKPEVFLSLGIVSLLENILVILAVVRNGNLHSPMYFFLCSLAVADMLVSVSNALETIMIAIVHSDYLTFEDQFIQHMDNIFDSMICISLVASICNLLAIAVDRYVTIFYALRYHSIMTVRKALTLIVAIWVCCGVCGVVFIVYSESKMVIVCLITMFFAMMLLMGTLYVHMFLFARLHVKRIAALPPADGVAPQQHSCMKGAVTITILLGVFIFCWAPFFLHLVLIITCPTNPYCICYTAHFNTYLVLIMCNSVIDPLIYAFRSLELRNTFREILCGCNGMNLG

Sequence of human melanocortin-4 receptor (human) (P32245 whole entry): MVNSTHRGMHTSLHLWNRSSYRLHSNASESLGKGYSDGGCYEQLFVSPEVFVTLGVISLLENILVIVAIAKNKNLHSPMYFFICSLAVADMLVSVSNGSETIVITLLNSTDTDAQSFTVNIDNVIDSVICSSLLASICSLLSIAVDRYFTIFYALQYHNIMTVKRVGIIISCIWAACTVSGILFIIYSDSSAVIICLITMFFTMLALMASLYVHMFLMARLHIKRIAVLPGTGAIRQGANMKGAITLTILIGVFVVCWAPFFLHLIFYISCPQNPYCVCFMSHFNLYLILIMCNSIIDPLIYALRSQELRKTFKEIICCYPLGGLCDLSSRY
Sequence of human melanocortin-1 receptor (human) (Q01726 whole entry): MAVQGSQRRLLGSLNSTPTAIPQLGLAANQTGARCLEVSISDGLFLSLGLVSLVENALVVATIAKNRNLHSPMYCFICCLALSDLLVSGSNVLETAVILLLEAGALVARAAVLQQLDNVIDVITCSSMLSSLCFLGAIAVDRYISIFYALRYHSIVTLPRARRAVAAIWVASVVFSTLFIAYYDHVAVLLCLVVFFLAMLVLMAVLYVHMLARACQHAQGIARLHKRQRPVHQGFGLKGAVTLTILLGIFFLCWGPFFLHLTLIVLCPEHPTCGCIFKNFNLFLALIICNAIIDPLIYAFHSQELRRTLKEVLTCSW
Sequence of melanocortin-5 receptor (P33032 whole entry): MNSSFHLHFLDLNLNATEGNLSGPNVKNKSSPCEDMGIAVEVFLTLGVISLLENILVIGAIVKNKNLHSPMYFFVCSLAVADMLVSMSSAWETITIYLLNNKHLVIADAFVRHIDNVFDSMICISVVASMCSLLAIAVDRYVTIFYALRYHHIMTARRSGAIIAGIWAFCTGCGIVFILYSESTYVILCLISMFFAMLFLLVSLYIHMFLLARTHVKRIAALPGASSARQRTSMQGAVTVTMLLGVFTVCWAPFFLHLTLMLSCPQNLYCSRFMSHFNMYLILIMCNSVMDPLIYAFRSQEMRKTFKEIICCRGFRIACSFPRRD
Sequence of melanocortin-2 receptor (Q01718 whole entry): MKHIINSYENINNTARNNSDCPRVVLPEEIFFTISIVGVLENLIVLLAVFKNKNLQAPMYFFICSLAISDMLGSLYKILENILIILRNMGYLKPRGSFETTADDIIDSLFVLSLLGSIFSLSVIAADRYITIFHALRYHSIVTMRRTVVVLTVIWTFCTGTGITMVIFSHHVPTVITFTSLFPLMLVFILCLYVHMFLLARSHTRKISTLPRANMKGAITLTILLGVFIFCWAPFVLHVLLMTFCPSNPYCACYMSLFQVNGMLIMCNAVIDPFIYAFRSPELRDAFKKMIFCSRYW

For orientation: Ki means the dissociation constant of the complex between target and ligand, obtained from inhibition or displacement. A high value points to weaker binding. As to “Ac-Nle-cyclo(Glu-Orn-D-Phe(4-OMe)-Arg-Dab)-NH2 (peptide)”, the MC-1 EC50 (average; cAMP HBL) in experiment [1] is 0.12 nM. The substance also showed an MC-1 Emax (average; cAMP HBL) in experiment [1] of 99%. Moreover, the results for the Ki in experiment [2] and in experiment [3] were 10000 nM and 2 nM, respectively.
On the same counts, the results for “Ac-Nle-cyclo(Glu-Orn-D-Phe-Arg-Dab)-Trp-NH2 (peptide)” are 0.002 nM, 109%, 45 nM and 0.015 nM.
The matching figures for “Ac-Nle-cyclo(Glu-Cit-D-Phe-Arg-Dab)-Trp-NH2 (peptide)”: 0.065 nM, 97%, 98 nM and 0.45 nM.
In experiment [1], Ac-[Nle]EH[dF]A[Dab]-NH2 (lactam 2-6) had an MC-1 EC50 (average; cAMP HBL) of 44 nM, an MC-1 EC50 (average; cAMPHBL) of 44 nM and an MC-1 Emax (average; cAMP HBL) of 73%. Moreover, the Ki in experiment [2] came to 10000 nM. Further, the Ki in experiment [3] came to 645 nM.
With “Ac-D-Phe-cyclo(Glu-His-D-Phe-Arg-Dab)-Trp-NH2 (peptide)”, the MC-1 Emax (average; cAMP HBL) in experiment [1] was determined as 75%. Besides, the Ki in experiment [2] worked out at 535 nM.
Regarding “Ac-[Nle]E[Orn][dPhe(4-Cl)]R[Dab]-NH2 (lactam 2-6)”, in experiment [1], the MC-1 EC50 (average; cAMP HBL) was found to be 0.1 nM and the MC-1 Emax (average; cAMP HBL) stood at 100%. Moreover, the Ki in experiment [2] came out at 1240 nM. This substance also displayed a Ki in experiment [3] of 2 nM.
On the same counts, the results for “Ac-[Nle]E[Orn][dPhe(4-Me)]R[Dab]-NH2 (lactam 2-6)” are 0.076 nM, 96%, 10000 nM and 3 nM.
In experiment [1], “Ac-Nle-cyclo(Dab-His-D-Phe-Arg-Dap)-Trp-NH2 (peptide)” gave an MC-1 EC50 (average; cAMP HBL) of 0.006 nM. In experiment [1], this substance gave an MC-1 Emax (average; cAMP HBL) of 78%. Also, the values for the Ki in experiment [2] and in experiment [3] were 325 nM and 0.025 nM, respectively.
On the same counts, the results for “Ac-Nle-cyclo(Glu-Orn-D-Phe(3,4-F)-Arg-Dab)-NH2 (peptide)” are 1 nM, 97%, 10000 nM and 40 nM.
The substance “Ac-[Nle]E[Orn][dPhe(2-Cl)]R[Dab]-NH2 (lactam 2-6)” came in with an MC-1 EC50 (average; cAMP HBL) in experiment [1] of 1 nM. The MC-1 Emax (average; cAMP HBL) in experiment [1] turned out to be 88%. Moreover, the results for the Ki in experiment [2] and in experiment [3] were 10000 nM and 30 nM, respectively.
With “Ac-Nle-cyclo(Glu-Ala-D-Phe-Arg-Dab)-Trp-NH2 (peptide)”, the MC-1 Emax (average; cAMP HBL) in experiment [1] is 86%. In experiment [2], this substance came in with a Ki of 455 nM.
Turning to “Ac-Nle-cyclo(Glu-His-D-Phe-Arg-Dab)-Nal 1-NH2 (peptide)”, in experiment [1], the MC-1 EC50 (average; cAMP HBL) worked out at 0.002 nM and the MC-1 Emax (average; cAMP HBL) stood at 72%. Besides, the Ki in experiment [2] came to 0.75 nM. The substance further showed a Ki in experiment [3] of 0.005 nM.
Turning to “Ac-[Nle]E[Orn][dPhe(3-Cl)]R[Dab]-NH2 (lactam 2-6)”, in experiment [1], the MC-1 EC50 (average; cAMP HBL) amounted to 2 nM and the MC-1 Emax (average; cAMP HBL) turned out to be 86%. Moreover, the Ki in experiment [2] worked out at 10000 nM. For the same substance, the Ki in experiment [3] stood at 35 nM.
On to “Ac-Nle-cyclo(Glu-Arg-D-Phe-Arg-Dab)-Trp-NH2 (peptide)”, for which, in experiment [1], the MC-1 Emax (average; cAMP HBL) amounted to 100%. Further, in experiment [2], the inhibitory constant (Ki) was determined as 20 nM.
As for “Ac-Nle-cyclo(Glu-Dab-D-Phe-Arg-Dab)-Trp-NH2 (peptide)”, in experiment [1], the MC-1 EC50 (average; cAMP HBL) stood at 0.008 nM and the MC-1 Emax (average; cAMP HBL) is 108%. The substance also gave an inhibitory constant (Ki) in experiment [2] of 98 nM. The Ki in experiment [3] came out at 0.05 nM.
The matching figures for “Ac-[Nle]E[Orn][dPhe(2-F)]R[Dab]-NH2 (lactam 2-6)”: 0.8 nM, 95%, 10000 nM and 18 nM.
Ac-[Nle]EH[dF][Dab]-NH2 (lactam 2-5) displayed an MC-1 Emax (average; cAMP HBL) in experiment [1] of 51%. Besides, the Ki in experiment [2] and in experiment [3] was 10000 nM throughout.
“Ac-Nle-cyclo(Glu-His-D-Phe-Arg-Dab)-Trp-OH (peptide)” returned an MC-1 Emax (average; cAMP HBL) in experiment [1] of 79%. Also, the Ki was 10000 nM in experiment [2] and 2 nM in experiment [3].
In experiment [1], “Ac-Nle-cyclo(Glu-Lys-D-Phe-Arg-Dab)-Trp-NH2 (peptide)” displayed an MC-1 Emax (average; cAMP HBL) of 108%. In addition, the Ki in experiment [2] is 95 nM.
For the substance “Ac-Nle-cyclo(Glu-His-D-Phe-Arg-Dab)-D-Trp-NH2 (peptide)”, in experiment [1], the MC-1 EC50 (average; cAMP HBL) stood at 0.025 nM and the MC-1 Emax (average; cAMP HBL) was 93%. This substance returned a Ki in experiment [2] of 33 nM. In experiment [3], this substance had an inhibitory constant (Ki) of 0.55 nM.
As to “Ac-Nle-cyclo(Glu-Pro-D-Phe-Arg-Dab)-NH2 (peptide)”, the values for the Ki in experiment [2] and in experiment [3] were 10000 nM and 2250 nM, respectively.
With “Ac-[Nle]E[Orn][dF]R[Dab]-NH2 (lactam 2-6)”, in experiment [1], the MC-1 EC50 (average; cAMP HBL) worked out at 0.5 nM and the MC-1 Emax (average; cAMP HBL) is 102%. In experiment [2], the Ki is 3620 nM. Besides, in experiment [3], the inhibitory constant (Ki) stood at 4 nM.
On the same counts, the results for “Ac-Nle-cyclo(Dap-His-D-Phe-Arg-Dab)-Trp-NH2 (peptide)” are 0.016 nM, 85%, 860 nM and 0.065 nM.
The matching figures for “Ac-Nle-cyclo(Dap-His-D-Phe-Arg-Dap)-Trp-NH2 (peptide)”: 0.007 nM, 70%, 680 nM and 0.03 nM.
The matching figures for “Ac-Nle-cyclo(Glu-His-D-Phe-Arg-Dab)-D-Nal 1-NH2 (peptide)”: 0.008 nM, 73%, 2 nM and 0.1 nM.
Consider “ACTH (adrenocorticotropic hormone) (from UniProt P01189 138-176) (ligand)”, for which the Functional - CEREP (EC50; nM) in experiment [4] was found to be 350 nM; in experiment [1], 980 nM; in experiment [5] it was 4100 nM; in experiment [6] it was 4.8 nM; in experiment [7], 390 nM.
In experiment [1], “Ac-[Nle]E[Orn][dPhe(4-F)]R[Dab]-NH2 (lactam 2-6)” registered an MC-1 EC50 (average; cAMP HBL) of 1 nM and an MC-1 Emax (average; cAMP HBL) of 102%. The inhibition constant Ki in experiment [2] came out at 10000 nM. In experiment [3], this substance showed a Ki of 20 nM.
Consider “Ac-Nle-cyclo(Glu-His-D-Phe-Arg-Orn)-Trp-NH2 (peptide)”, for which, in experiment [1], the MC-1 Emax (average; cAMP HBL) was 91%. In experiment [2], this substance returned a Ki of 295 nM.
In experiment [1], “Ac-Nle-cyclo(Glu-His-D-Phe-Arg-Dab)-D-Nal 2-NH2 (peptide)” came in with an MC-1 EC50 (average; cAMP HBL) of 0.005 nM and an MC-1 Emax (average; cAMP HBL) of 69%. The Ki in experiment [2] turned out to be 0.095 nM. In experiment [3], this substance had a Ki of 0.02 nM.
Take “Ac-Nle-cyclo(Dab-His-D-Phe-Arg-Dab)-Trp-NH2 (peptide)”: in experiment [1], the MC-1 EC50 (average; cAMP HBL) stood at 0.009 nM and the MC-1 Emax (average; cAMP HBL) came out at 92%. In experiment [2], this substance returned a Ki of 380 nM. In experiment [3], this substance gave a Ki of 0.015 nM.
In experiment [1], Ac-[Nle]EH[dF]R[Dab]-NH2 (lactam 2-6) gave an MC-1 EC50 (average; cAM PHBL) of 0.32 nM, an MC-1 EC50 (average; cAMP HBL) of 0.32 nM and an MC-1 Emax (average; cAMP HBL) of 85%. This substance registered a Ki in experiment [2] of 10000 nM. In addition, the Ki in experiment [3] is 7 nM.
In experiment [1], “Ac-Nle-cyclo(Glu-His-D-Phe-Arg-Dap)-Trp-OH (peptide)” returned an MC-1 EC50 (average; cAMP HBL) of 0.107 nM and an MC-1 Emax (average; cAMP HBL) of 81%. For the same substance, the Ki in experiment [2] was 4700 nM. Further, the Ki in experiment [3] came to 1 nM.
“Ac-Nle-cyclo(Glu-His-D-Phe-Arg-Dab)-Trp-NH2 (peptide)”: the MC-1 Emax (average; cAMP HBL) in experiment [1] is 95%. Also, in experiment [2], the Ki is 110 nM.
As to “Ac-Nle-cyclo(Glu-His-D-Phe-Arg-Dap)-Trp-NH2 (peptide)”, the Functional - CEREP (EC50; nM) in experiment [4] is 510 nM. This substance also returned an MC-1 Emax (average; cAMP HBL) in experiment [1] of 91%. In experiment [2], this substance showed a Ki of 510 nM.
In experiment [1], “Ac-Nle-cyclo(Glu-His-D-Phe-Arg-Dab)-Nal 2-NH2 (peptide)” showed an MC-1 EC50 (average; cAM PHBL) of 0.004 nM and an MC-1 Emax (average; cAMP HBL) of 83%. The Ki in experiment [2] came to 3 nM. This substance displayed an inhibition constant (Ki) in experiment [3] of 0.01 nM.
